Holding throughout (experiment): cell-based or functional assay
One test has as its target T1, YFP-degronSwitcha.
T1 sequence: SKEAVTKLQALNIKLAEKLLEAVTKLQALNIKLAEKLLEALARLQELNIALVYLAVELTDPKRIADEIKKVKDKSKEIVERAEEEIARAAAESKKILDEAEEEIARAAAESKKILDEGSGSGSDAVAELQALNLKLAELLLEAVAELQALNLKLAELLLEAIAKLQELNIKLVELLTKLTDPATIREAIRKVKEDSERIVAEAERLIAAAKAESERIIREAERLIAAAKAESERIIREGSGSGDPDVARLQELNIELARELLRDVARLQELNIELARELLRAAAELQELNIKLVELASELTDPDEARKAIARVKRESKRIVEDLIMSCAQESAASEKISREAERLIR

In test [1] the target is T2, dCas9-VP64-RFP-degronSwitcha.
T2 sequence: T1 sequence

Another test deals with SynTF-RFP-degronSwitcha.

No end group written: not given here.

B1: Keya-BFP (designed binder, not shown: large carriers)
chain: EARKAIARVKRESKRIVEDAERLIREAAAASEKISREAERLIREAAAASEKISRE
modifications: not fully specified (C-terminus); also: linker to BFP not given here
In the test with YFP-degronSwitcha, B1 registered a YFP fluorescence at steady state, flow cytometry, S. cerevisiae of under 73%. In test [1], the decrease in RFP fluorescence at 31.25 nM E2, flow cytometry, S. cerevisiae amounted to 78% and the decrease in pTet7x-YFP reporter fluorescence at 31.25 nM E2, flow cytometry, S. cerevisiae amounted to 41%.

B2: keya-BFP-NLS (designed binder, not shown: large carriers)
chain: B1 chain
modifications: not fully specified (C-terminus); also: BFP and NLS sequences not given here
In the test with SynTF-RFP-degronSwitcha, B2 had a decrease in RFP fluorescence at 31.25 nM E2, flow cytometry, S. cerevisiae of 61% and a decrease in pSynTF-YFP reporter fluorescence at 31.25 nM E2, flow cytometry, S. cerevisiae of 82%.

The values are drawn from patent publication US20220119467A1.
